Test results taken from patent US11300572B2, “Methods and systems for producing nanolipoprotein particles” (LAWRENCE LIVERMORE NATIONAL SECURITY, LLC, priority 2007, dated 2022).

Type: physicochemical
Protocol: Cell-free reactions were then performed. In particular, preparative reactions are carried out using the Invitrogen's Expressway Maxi kit or Roche's RTS 500 ProteoMaster Kit. Basically, lyophilized reaction components (Lysate, Reaction Mix, Amino Acid Mix, Methionine) are dissolved in Reconstitution Buffer and combined as specified by the manufacturer. For co-expression a total of 5 μg of each plasmid DNA (bOp and Δ49A1) was added to the lysate mixture with added DMPC vesicles and retinal cofactor (see below). The reactions were incubated at 30° C. or 37° C. for 4-24 h. For membrane protein survey studies co-expression of 0.2 ug Δ49A1 DNA and 1 ug of each membrane protein DNA was added to the cell-free mixture where [^35S]Met (135 mCi/mmol final) (Perkin Elmer, Waltham, Mass.) was added in place of methionine. The soluble fraction was obtained by centrifuging the reactions at 14000×g for 5 min. Autoradiograms were generated by overnight exposures to proteins separated by SDS-PAGE (data not shown). Percent solubility was determined using ImageJ software (U. S. National Institutes of Health) to quantize autoradiogram bands for the soluble fractions in the presence and absence of apolipoprotein Δ49A1.
All were expressed in the presence of 30-50 μM all-trans-retinal and 2 mg/mL DMPC. […]
The NLPs were also analyzed by SDS Page. […]

B1: bR: bacteriorhodopsin from H. salinarium, seven transmembrane protein, cell-free expressed from bOp with all-trans retinal (protein, UniProt P02945 14-262, looked up)
Bacteriorhodopsin: QAQITGRPEWIWLALGTALMGLGTLYFLVKGMGVSDPDAKKFYAITTLVPAIAFTMYLSMLLGYGLTMVPFGGEQNPIYWARYADWLFTTPLLLLDLALLVDADQGTILALVGADGIMIGTGLVGALTKVYSYRFVWWAISTAAMLYILYVLFFGFTSKAESMRPEVASTFKVLRNVTVVLWSAYPVVWLIGSEGAGIVPLNIETLLFMVLDVSAKVGFGLILLRSRAIFGEAEAPEPSAGDGAAATSD
modifications: all-trans retinal chromophore
  solubility of bR: insoluble
